Tests used:
[1] = biological target: T1, PbrR (Cupriavidus metallidurans CH34 (plasmid pMOL30)) (UniProt Q58AJ5); experiment: EMSA; details: not given in material (gel retardation and DNase I protection as in cited refs 36 and 37)
T1 sequence: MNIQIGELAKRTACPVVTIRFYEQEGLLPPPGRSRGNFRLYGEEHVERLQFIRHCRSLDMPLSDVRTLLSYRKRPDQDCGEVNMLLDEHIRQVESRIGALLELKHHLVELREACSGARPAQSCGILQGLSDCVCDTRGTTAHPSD

[2] = biological target: T1, PbrR (Cupriavidus metallidurans CH34 (plasmid pMOL30)); experiment: DNase I footprinting; details: not given in material (gel retardation and DNase I protection as in cited refs 36 and 37)

“GCGAATGGTCACCACCGGGCATGCGGTGCGCTTGGCAAGCTCGCCGATCTGGATATTCATGGCGTCGGATGGGAGATGTCTTGACTCTATAGTAACTAGAGGGTGTTAAATCGGCAACGCGAGATGAATACACACAAGGGGTTGCCATGAGCGAATGTGGCTCGAAGGGATGTGGCTGCGCTTCCGTTGCGACGCGCAACCCAGAACCGAGCACGGTTGGCGCGGGGCTGAAGCAGGCGCGCTACCGAATCGAAAACATGGACTGTCCGACCGAAGAGGCGCTGATTCGCGACAAGC (double strand) [PpbrA 296 bp PCR product]” was tested, and the binding [1] was “binds” and the binding [2] was “binds”.

Source: PMC3431237
